Data on one molecule can be found in patent publication US9969784B2, “Compositions and methods for modulation of immune function” (THE CHILDREN'S HOSPITAL OF PHILADELPHIA, priority 2013, dated 2018).

The target in assay [1] is T1, Itch (Homo sapiens, UniProt Q96J02).
T1 construct: made in house
In words: ubiquitin charging assay (cell free), Itch. The settings on record: E1, E2, ubiquitin, ATP and Mg++, then EDTA, Itch added with the substance. It counts as biochemical. The method, then:
FIGS. 1A-1D. Ndfip1 and Ndfip2 promote ubiquitin charging of Itch. FIG. 1A: E1, E2, ubiquitin, ATP and Mg++ were incubated together to prepare the E2 for ubiquitin transfer. EDTA was added to prevent further transfer of ubiquitin from E1 to E2. This ensures that only a single ubiquitin will be transferred. Itch was then added to the reaction with or without Ndfip1 or Ndfip2. […] FIG. 1C: Schematic diagram of auto-inhibition by Itch and activation by Ndfip1. FIG. 1D: Ndfip peptide mimics therapeutically activate
(§1) There are 9 members of the Nedd4-family of E3 ubiquitin ligases. These ligases are unusual in that there is a high degree of sequence similarity. All family members are composed of a HECT domain (the catalytic subunit), 2-4 WW domains, and a single C2 domain. Auto-inhibition of family members has been described by others, and different mechanisms of auto-inhibition have been proposed. […] We have devised a new way to look at auto-inhibition, namely by using a ubiquitin charging assay which is the initial event in activating Nedd4-family E3 ubiquitin ligases. Ubiquitin charging occurs when an E2 ubiquitin conjugating enzyme transfers ubiquitin to the catalytic cysteine of the Nedd4-family E3 ligase. […] We have determined that Ndfip1 and Ndfip2 are not required for Itch to bind the E2, as association between E2 and Itch occur in the absence of Ndfip1 and Ndfip2. […]

Assay [2] deals with Nedd4. In words: ubiquitin charging assay, Nedd4. It counts as biochemical. Particulars: carried out for 30 seconds. The method, then: FIG. 8. Multiple Nedd4-family members likely share this mechanism of auto-inhibition and relief by Ndfip1 and Ndfip2. Nedd4 and Itch were expressed, purified and tested in the ubiquitin charging assay in the presence or absence of Ndfip1 or Ndfip2 as shown. Neither Itch nor Nedd4 were charged with ubiquitin in the assay when Ndfip1 or Ndfip2 were omitted from the assay. These assays were carried out for 30 seconds.
Nedd4, sequence (P46934 whole entry, species assumed): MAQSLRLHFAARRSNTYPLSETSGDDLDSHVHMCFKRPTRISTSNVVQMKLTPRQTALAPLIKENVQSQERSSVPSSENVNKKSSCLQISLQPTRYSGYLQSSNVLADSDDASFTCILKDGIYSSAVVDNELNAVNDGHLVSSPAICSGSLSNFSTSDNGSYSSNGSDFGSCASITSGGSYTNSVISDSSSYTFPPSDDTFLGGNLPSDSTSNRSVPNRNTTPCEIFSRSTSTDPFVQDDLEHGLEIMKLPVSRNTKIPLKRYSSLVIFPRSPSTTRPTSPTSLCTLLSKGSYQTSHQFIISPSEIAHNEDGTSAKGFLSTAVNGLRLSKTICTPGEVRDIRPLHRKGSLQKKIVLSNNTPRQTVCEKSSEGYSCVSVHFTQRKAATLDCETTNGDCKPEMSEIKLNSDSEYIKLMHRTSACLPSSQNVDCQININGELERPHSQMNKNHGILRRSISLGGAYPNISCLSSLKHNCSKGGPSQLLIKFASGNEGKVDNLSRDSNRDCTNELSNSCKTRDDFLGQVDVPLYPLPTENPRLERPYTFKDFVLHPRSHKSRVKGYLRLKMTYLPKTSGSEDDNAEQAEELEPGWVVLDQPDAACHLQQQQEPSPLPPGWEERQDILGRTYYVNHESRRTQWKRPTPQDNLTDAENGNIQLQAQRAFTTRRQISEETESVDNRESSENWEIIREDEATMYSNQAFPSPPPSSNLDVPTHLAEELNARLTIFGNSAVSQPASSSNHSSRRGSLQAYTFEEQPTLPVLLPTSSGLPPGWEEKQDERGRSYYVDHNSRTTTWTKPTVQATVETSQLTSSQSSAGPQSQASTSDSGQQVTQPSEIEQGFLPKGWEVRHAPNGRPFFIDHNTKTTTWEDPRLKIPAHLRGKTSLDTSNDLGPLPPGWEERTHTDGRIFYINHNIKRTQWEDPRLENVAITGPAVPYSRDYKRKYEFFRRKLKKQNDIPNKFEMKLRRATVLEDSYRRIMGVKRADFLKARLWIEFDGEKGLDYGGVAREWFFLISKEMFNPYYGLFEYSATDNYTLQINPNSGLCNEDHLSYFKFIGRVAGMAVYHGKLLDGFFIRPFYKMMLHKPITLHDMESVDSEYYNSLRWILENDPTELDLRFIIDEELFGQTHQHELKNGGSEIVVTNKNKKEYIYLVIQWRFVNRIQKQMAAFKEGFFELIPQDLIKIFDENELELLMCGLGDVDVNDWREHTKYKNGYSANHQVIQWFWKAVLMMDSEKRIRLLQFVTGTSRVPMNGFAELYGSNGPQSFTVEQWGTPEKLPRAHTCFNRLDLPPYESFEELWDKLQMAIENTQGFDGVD
as §1, with “ligase. This event is absolutely required for catalytic activity of the E3 ligase.” for “ligase.”

T1 sequence (Q96J02 whole entry, species assumed): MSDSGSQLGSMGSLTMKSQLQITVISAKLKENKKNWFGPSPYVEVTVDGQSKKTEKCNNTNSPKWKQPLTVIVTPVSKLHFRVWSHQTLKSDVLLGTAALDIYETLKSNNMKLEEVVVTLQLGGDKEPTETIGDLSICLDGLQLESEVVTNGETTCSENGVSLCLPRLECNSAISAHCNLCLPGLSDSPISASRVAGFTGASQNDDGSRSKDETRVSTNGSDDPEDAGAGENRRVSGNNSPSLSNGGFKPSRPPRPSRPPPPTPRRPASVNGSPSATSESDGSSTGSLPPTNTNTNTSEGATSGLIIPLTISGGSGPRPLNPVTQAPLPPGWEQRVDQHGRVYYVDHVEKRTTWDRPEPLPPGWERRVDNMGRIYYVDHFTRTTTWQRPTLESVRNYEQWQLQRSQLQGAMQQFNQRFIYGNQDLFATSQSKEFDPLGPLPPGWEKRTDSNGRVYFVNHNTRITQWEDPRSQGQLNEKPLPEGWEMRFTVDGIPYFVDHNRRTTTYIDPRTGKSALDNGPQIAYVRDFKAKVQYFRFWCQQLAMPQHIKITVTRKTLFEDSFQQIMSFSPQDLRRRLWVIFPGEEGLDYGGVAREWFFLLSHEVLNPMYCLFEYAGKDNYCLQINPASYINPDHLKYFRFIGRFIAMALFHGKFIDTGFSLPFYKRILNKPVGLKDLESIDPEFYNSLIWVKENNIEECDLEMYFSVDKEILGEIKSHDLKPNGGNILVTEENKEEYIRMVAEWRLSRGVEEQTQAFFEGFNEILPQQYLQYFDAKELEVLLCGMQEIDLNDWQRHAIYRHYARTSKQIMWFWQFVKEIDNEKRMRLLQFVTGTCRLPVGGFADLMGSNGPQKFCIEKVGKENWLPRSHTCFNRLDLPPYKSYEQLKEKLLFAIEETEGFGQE

B1: Ndfip2: adaptor of the Ndfip family that relieves auto-inhibition of Nedd4-family E3 ligases (protein, UniProt Q9NV92 1-336, looked up)
NEDD4 family-interacting …: MARRRSQRVCASGPSMLNSARGAPELLRGTATNAEVSAAAAGATGSEELPPGDRGCRNGGGRGPAATTSSTGVAVGAEHGEDSLSRKPDPEPGRMDHHQPGTGRYQVLLNEEDNSESSAIEQPPTSNPAPQIVQAASSAPALETDSSPPPYSSITVEVPTTSDTEVYGEFYPVPPPYSVATSLPTYDEAEKAKAAAMAAAAAETSQRIQEEECPPRDDFSDADQLRVGNDGIFMLAFFMAFIFNWLGFCLSFCITNTIAGRYGAICGFGLSLIKWILIVRFSDYFTGYFNGQYWLWWIFLVLGLLLFFRGFVNYLKVRNMSESMAAAHRTRYFFLL
Consider B1, for which, in assay [1], the “ubiquitin charging of Itch” value is “ubiquitin charging of Itch is observed”. Further, the “relief of Nedd4 auto-inhibition” value in assay [2] is listed as “auto-inhibition was relieved”.
